Test results from US20220010021A1 (Sanofi, published 2022).
Changes are numbered by the printed parent chain. In names and notes the source's numbering stands.

B1: 16H7 variant with light chain substitution P54F (antibody, V domains shown)
VH: not shown
VL: SYVLTQPPSVSVAPGQTARITCGGNNIGSESVHWYQQKPGQAPVLVVYDDSDRFSGIPERFSGSNSGNTATLTISRVEAGDEADYYCQVWDGNSDHVVFGGGTKLTVLG
B2: 16H7 variant with light chain substitution P54G (antibody, V domains shown)
VH: not shown
VL: B1 VL with F54G
B3: 16H7 variant with light chain substitution P54H (antibody, V domains shown)
VH: not shown
VL: B1 VL with F54H
B4: 16H7 variant with light chain substitution P54I (antibody, V domains shown)
VH: not shown
VL: B1 VL with F54I
B5: 16H7 variant with light chain substitution P54K (antibody, V domains shown)
VH: not shown
VL: B1 VL with F54K
B6: 16H7 variant with light chain substitution P54L (antibody, V domains shown)
VH: not shown
VL: B1 VL with F54L
B7: 16H7 variant with light chain substitution P54M (antibody, V domains shown)
VH: not shown
VL: B1 VL with F54M
B8: 16H7 variant with light chain substitution P54N (antibody, V domains shown)
VH: not shown
VL: B1 VL with F54N
B9: 16H7 variant with light chain substitution P54S (antibody, V domains shown)
VH: not shown
VL: B1 VL with F54S
B10: 16H7 variant with light chain substitution P54T (antibody, V domains shown)
VH: not shown
VL: B1 VL with F54T
B11: 16H7 variant with light chain substitution P54V (antibody, V domains shown)
VH: not shown
VL: B1 VL with F54V
B12: 16H7 variant with light chain substitution P54W (antibody, V domains shown)
VH: not shown
VL: B1 VL with F54W
B13: 16H7 variant with light chain substitution P54Y (antibody, V domains shown)
VH: not shown
VL: B1 VL with F54Y
B14: 16H7 variant with light chain substitution R53A (antibody, V domains shown)
VH: not shown
VL: B1 VL with R53A, F54P
B15: 16H7 variant with light chain substitution R53C (antibody, V domains shown)
VH: not shown
VL: B1 VL with R53C, F54P
B16: 16H7 variant with light chain substitution R53H (antibody, V domains shown)
VH: not shown
VL: B1 VL with R53H, F54P
B17: 16H7 variant with light chain substitution R53I (antibody, V domains shown)
VH: not shown
VL: B1 VL with R53I, F54P
B18: 16H7 variant with light chain substitution R53K (antibody, V domains shown)
VH: not shown
VL: B1 VL with R53K, F54P
B19: 16H7 variant with light chain substitution R53L (antibody, V domains shown)
VH: not shown
VL: B1 VL with R53L, F54P
B20: 16H7 variant with light chain substitution R53M (antibody, V domains shown)
VH: not shown
VL: B1 VL with R53M, F54P
B21: 16H7 variant with light chain substitution R53P (antibody, V domains shown)
VH: not shown
VL: B1 VL with R53P, F54P
B22: 16H7 variant with light chain substitution R53Q (antibody, V domains shown)
VH: not shown
VL: B1 VL with R53Q, F54P
B23: 16H7 variant with light chain substitution R53S (antibody, V domains shown)
VH: not shown
VL: B1 VL with R53S, F54P
B24: 16H7 variant with light chain substitution R53T (antibody, V domains shown)
VH: not shown
VL: B1 VL with R53T, F54P
B25: 16H7 variant with light chain substitution S51A (antibody, V domains shown)
VH: not shown
VL: B1 VL with S51A, F54P
B26: 16H7 variant with light chain substitution S51C (antibody, V domains shown)
VH: not shown
VL: B1 VL with S51C, F54P
B27: 16H7 variant with light chain substitution S51D (antibody, V domains shown)
VH: not shown
VL: B1 VL with S51D, F54P
B28: 16H7 variant with light chain substitution S51E (antibody, V domains shown)
VH: not shown
VL: B1 VL with S51E, F54P
B29: 16H7 variant with light chain substitution S51G (antibody, V domains shown)
VH: not shown
VL: B1 VL with S51G, F54P
B30: 16H7 variant with light chain substitution S51V (antibody, V domains shown)
VH: not shown
VL: B1 VL with S51V, F54P
B31: 16H7 variant with light chain substitution S55C (antibody, V domains shown)
VH: not shown
VL: B1 VL with F54P, S55C
B32: 16H7 variant with light chain substitution S55D (antibody, V domains shown)
VH: not shown
VL: B1 VL with F54P, S55D
B33: 16H7 variant with light chain substitution S55E (antibody, V domains shown)
VH: not shown
VL: B1 VL with F54P, S55E
B34: 16H7 variant with light chain substitution S55F (antibody, V domains shown)
VH: not shown
VL: B1 VL with F54P, S55F
B35: 16H7 variant with light chain substitution S55G (antibody, V domains shown)
VH: not shown
VL: B1 VL with F54P, S55G
B36: 16H7 variant with light chain substitution S55H (antibody, V domains shown)
VH: not shown
VL: B1 VL with F54P, S55H
B37: 16H7 variant with light chain substitution S55I (antibody, V domains shown)
VH: not shown
VL: B1 VL with F54P, S55I
B38: 16H7 variant with light chain substitution S55L (antibody, V domains shown)
VH: not shown
VL: B1 VL with F54P, S55L
B39: 16H7 variant with light chain substitution S55N (antibody, V domains shown)
VH: not shown
VL: B1 VL with F54P, S55N

Tests used:
[1] = target: human FGFR1c/KLB receptor complex on iLite FGF21 Assay Ready Cells (human, UniProt P11362 22-822; Q86Z14 1-1044); assay: cell-based or functional assay; as to Mean E max (%): reference of the scale not given here
[2] = target: T1, human beta-Klotho (KLB) (human, UniProt Q86Z14 53-997); assay: BLI off-rate screening, mAb captured, KLB analyte;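 also: Off-rate taken from the dissociation phase, biosensors held in D-PBS with 0.1% BSA over 1800 s, antibody supernatants diluted to 25 µg/mL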
T1 construct: bought protein, used as analyte in the off-rate screening; also called human KLB; β-Klotho
T1 sequence (looked up): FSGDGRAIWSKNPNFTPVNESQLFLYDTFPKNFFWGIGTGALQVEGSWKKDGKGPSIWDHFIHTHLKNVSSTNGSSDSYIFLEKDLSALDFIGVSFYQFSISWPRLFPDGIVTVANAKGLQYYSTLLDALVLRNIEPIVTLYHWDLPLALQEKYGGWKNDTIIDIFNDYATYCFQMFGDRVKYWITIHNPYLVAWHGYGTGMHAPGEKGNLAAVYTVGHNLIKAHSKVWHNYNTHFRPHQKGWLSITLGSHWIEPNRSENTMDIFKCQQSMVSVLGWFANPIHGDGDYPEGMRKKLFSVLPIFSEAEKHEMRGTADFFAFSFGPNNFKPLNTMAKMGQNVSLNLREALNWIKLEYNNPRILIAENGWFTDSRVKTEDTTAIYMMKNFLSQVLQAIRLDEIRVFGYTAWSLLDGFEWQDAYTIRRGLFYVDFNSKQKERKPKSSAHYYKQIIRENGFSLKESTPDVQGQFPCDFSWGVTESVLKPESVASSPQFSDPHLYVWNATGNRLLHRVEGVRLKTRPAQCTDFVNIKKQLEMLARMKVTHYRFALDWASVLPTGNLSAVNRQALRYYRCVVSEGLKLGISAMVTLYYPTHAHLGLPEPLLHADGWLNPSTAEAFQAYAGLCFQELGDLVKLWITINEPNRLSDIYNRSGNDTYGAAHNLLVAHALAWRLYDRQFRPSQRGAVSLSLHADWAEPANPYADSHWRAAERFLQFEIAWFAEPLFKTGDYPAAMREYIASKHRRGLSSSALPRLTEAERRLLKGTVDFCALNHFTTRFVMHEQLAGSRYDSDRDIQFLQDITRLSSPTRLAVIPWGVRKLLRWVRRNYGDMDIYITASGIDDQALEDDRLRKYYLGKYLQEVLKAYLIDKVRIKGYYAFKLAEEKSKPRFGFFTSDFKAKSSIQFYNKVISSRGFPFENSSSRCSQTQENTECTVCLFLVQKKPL

Chain of human FGFR1c/KLB receptor complex on iLite FGF21 Assay Ready Cells (P11362 22-822, chain 1 of 2): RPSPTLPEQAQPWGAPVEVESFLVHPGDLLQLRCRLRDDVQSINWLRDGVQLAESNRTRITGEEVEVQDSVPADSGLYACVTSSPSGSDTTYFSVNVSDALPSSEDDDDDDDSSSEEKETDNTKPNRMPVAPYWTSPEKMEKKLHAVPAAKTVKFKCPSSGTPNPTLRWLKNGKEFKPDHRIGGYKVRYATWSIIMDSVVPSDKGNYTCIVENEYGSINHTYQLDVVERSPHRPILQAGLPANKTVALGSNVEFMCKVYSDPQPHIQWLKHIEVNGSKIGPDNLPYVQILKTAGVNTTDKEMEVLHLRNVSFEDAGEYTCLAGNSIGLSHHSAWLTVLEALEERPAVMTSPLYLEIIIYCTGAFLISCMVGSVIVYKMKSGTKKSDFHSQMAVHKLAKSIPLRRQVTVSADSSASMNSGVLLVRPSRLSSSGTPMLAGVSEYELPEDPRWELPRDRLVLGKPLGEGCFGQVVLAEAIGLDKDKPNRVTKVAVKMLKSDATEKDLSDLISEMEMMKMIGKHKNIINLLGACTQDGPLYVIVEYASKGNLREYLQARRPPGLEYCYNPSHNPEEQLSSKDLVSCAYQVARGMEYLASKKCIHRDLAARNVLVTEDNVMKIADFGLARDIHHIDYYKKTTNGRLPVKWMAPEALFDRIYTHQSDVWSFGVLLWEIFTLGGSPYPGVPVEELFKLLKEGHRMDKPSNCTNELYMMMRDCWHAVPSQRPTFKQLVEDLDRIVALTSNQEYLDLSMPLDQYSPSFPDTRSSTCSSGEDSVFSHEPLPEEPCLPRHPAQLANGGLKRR
Chain of human FGFR1c/KLB receptor complex on iLite FGF21 Assay Ready Cells (Q86Z14 whole entry, chain 2 of 2): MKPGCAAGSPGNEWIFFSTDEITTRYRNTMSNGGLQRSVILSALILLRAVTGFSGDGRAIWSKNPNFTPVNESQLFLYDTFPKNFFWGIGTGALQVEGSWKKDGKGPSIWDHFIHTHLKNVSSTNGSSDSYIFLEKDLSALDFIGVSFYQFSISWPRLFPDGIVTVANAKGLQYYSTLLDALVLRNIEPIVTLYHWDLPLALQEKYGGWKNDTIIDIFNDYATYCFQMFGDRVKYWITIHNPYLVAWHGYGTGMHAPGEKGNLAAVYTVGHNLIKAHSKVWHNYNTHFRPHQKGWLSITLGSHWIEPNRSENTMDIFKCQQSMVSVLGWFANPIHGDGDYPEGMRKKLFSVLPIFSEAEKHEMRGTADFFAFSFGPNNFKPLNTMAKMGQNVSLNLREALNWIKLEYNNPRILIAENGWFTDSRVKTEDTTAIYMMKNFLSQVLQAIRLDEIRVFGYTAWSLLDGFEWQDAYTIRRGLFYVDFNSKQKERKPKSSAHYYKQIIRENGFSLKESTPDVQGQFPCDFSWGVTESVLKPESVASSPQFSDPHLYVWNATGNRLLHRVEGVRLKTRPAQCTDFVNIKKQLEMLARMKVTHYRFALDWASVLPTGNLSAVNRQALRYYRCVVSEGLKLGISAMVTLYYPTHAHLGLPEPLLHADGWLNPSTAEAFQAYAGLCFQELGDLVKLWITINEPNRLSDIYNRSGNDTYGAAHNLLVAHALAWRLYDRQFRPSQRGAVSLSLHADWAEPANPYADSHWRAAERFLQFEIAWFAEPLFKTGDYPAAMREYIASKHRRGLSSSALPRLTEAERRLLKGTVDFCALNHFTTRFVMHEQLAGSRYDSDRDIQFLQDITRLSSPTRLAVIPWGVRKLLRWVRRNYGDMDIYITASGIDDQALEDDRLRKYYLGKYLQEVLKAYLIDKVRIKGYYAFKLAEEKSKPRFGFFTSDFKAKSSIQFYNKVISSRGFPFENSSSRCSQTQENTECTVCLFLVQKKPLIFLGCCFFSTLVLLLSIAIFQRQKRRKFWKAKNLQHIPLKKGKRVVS

| Binder | Mean E max (%) [1] [%] | Mean EC50 [1] [nM] | koff [2] [s⁻¹] |
| --- | --- | --- | --- |
| B1 | 105 | 0.143 | 0.00012 |
| B2 | 114 | 0.141 | 5.1e-05 |
| B3 | 100 | 0.111 | 0.00014 |
| B4 | 112 | 0.115 | 3.5e-05 |
| B5 | 100 | 0.131 | 0.00016 |
| B6 | 108 | 0.133 | 9.6e-05 |
| B7 | 98 | 0.087 | 3.2e-05 |
| B8 | 105 | 0.15 | 0.00014 |
| B9 | 102 | 0.103 | 7.9e-05 |
| B10 | 108 | 0.113 | 0.00018 |
| B11 | 109 | 0.11 | 4.1e-05 |
| B12 | 98 | 0.091 | 0.00017 |
| B13 | 110 | 0.15 | 8.3e-05 |
| B14 | 89 | 0.132 | 0.0002 |
| B15 | 107 | 0.147 | 0.00044 |
| B16 | 103 | 0.153 | 0.00015 |
| B17 | 100 | 0.151 | 1.7e-05 |
| B18 | 98 | 0.114 | 4e-05 |
| B19 | 106 | 0.151 | 2e-05 |
| B20 | 95 | 0.099 | 0.00018 |

| Binder | Mean E max (%) [1] [%] | Mean EC50 [1] [nM] | koff [2] [s⁻¹] |
| --- | --- | --- | --- |
| B21 | 92 | 0.126 | 0.00028 |
| B22 | 100 | 0.131 | 0.00024 |
| B23 | 105 | 0.113 | 0.00029 |
| B24 | 109 | 0.134 | 8.7e-05 |
| B25 | 109 | 0.123 | 4.7e-05 |
| B26 | 112 | 0.147 | 4.7e-05 |
| B27 | 97 | 0.098 | 3.7e-05 |
| B28 | 107 | 0.108 | 7.2e-05 |
| B29 | 104 | 0.129 | 0.0001 |
| B30 | 110 | 0.139 | 2e-05 |
| B31 | 91 | 0.244 | 6.3e-05 |
| B32 | 109 | 0.146 | 3.6e-05 |
| B33 | 106 | 0.141 | 3.8e-05 |
| B34 | 97 | 0.095 | 2.4e-05 |
| B35 | 104 | 0.128 | 3.5e-05 |
| B36 | 111 | 0.122 | 4e-06 |
| B37 | 110 | 0.133 | 1.3e-05 |
| B38 | 97 | 0.126 | 8.4e-05 |
| B39 | 111 | 0.141 | 1.7e-05 |
